Measured values published in paper PMC4612432 (The journal of physical chemistry. B, 2013).

T1: Wild-type human lysozyme (human) (UniProt P61626)
T1 sequence: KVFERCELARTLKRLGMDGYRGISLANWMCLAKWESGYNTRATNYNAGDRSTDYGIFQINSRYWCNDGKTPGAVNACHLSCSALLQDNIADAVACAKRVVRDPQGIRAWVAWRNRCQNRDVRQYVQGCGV


How the values were obtained:
[1] = target: T1, Wild-type human lysozyme (human); test: SPR
[2] = target: T1, Wild-type human lysozyme (human); test: ITC
Wild-type human lysozyme = Wild-type human lysozyme (Homo sapiens, UniProt P61626); test: SPR

| Kd [1] | koff [1] | kon [1] | Kd [2] | Kd (Wild-type human lysozyme) | koff (Wild-type human lysozyme) | kon (Wild-type human lysozyme) | Binder |
| --- | --- | --- | --- | --- | --- | --- | --- |
| 310 nM | 0.128 s⁻¹ | 410000 M⁻¹ s⁻¹ | 2500 nM | – | – | – | cAb-HuL5G (VHH) VHH: QVQLQESGGGSVQAGGSLRLSCSASGLSTTVMAWFRQAPGKEREGVAAIYTGDGFPYYADSVKGRFTISQDNAKNTVYLQMNSLKPEDTAMYYCAAKTGAFSYGSLWWMSRAYNHWGQGTEVTVSS |
| – | – | – | – | 460 nM | 0.088 ± 0.009 s⁻¹ | 190000 M⁻¹ s⁻¹ | cAb-HuL5 (VHH) VHH: QVQLQESGGGSVQAGGSLRLSCEASGLSTTVMAWFRQAPGKEREGVAAIYTGDGFPYYADSVKGRFTISQDNAKNRMYLQMNSLEPEDTAMYYCAAKTGAFSYGSLWWMSRAYNHWGQGTQVTVSS |
